Starred links: 1 amine or outer side, 2 acyl side, 3 side chain; linkers in the order of their positions; H or OH if unused. Positions of bridges follow the written chain, without caps; N, C: chain ends. Groups on a side chain read outwards from the residue. No end group written: not given here. *: point of attachment. C20 diacid = O=C(O)CCCCCCCCCCCCCCCCCCC(=O)*; C18 diacid = O=C(O)CCCCCCCCCCCCCCCCC(=O)*; γGlu = O=C(O)[C@H](CCC(=O)[*:2])N[*:1]; AEEA = NCCOCCOCC(=O)O
B1: N-epsilon21-[2-(2-{2-[2-(2-{2-[(S)-4-Carboxy-4-(19-carboxyheptadecanoylamino)butyrylamino]ethoxy}ethoxy)acetylamino]ethoxy}ethoxy)acetyl]-[Glu14,Lys21,His35]-pr … (peptide)
peptide: KCNTATCATQRLAEFLVHSSK([AEEA-AEEA-γGlu-19‑carboxyheptadecanoyl])NFGPILPPTNVGSHTY-NH2
modifications: disulfide 2-7
B2: N-alpha-[(S)-4-Carboxy-4-(19-carboxynonadecanoylamino)butyryl]-[Glu14,His17,Asp21,His35]-pramlintide (peptide)
peptide: {C20 diacid-γGlu}-KCNTATCATQRLAEFLHHSSDNFGPILPPTNVGSHTY-NH2
modifications: disulfide 2-7
SMILES: CC[C@H](C)[C@H](NC(=O)[C@@H]1CCCN1C(=O)CNC(=O)[C@H](Cc1ccccc1)NC(=O)[C@H](CC(N)=O)NC(=O)[C@H](CC(=O)O)NC(=O)[C@H](CO)NC(=O)[C@H](CO)NC(=O)[C@H](Cc1c[nH]cn1)NC(=O)[C@H](Cc1c[nH]cn1)NC(=O)[C@H](CC(C)C)NC(=O)[C@H](Cc1ccccc1)NC(=O)[C@H](CCC(=O)O)NC(=O)[C@H](C)NC(=O)[C@H](CC(C)C)NC(=O)[C@H](CCCNC(=N)N)NC(=O)[C@H](CCC(N)=O)NC(=O)[C@@H](NC(=O)[C@H](C)NC(=O)[C@@H]1CSSC[C@H](NC(=O)[C@H](CCCCN)NC(=O)CC[C@H](NC(=O)CCCCCCCCCCCCCCCCCCC(=O)O)C(=O)O)C(=O)N[C@@H](CC(N)=O)C(=O)N[C@@H]([C@@H](C)O)C(=O)N[C@@H](C)C(=O)N[C@@H]([C@@H](C)O)C(=O)N1)[C@@H](C)O)C(=O)N[C@@H](CC(C)C)C(=O)N1CCC[C@H]1C(=O)N1CCC[C@H]1C(=O)N[C@H](C(=O)N[C@@H](CC(N)=O)C(=O)N[C@H](C(=O)NCC(=O)N[C@@H](CO)C(=O)N[C@@H](Cc1c[nH]cn1)C(=O)N[C@H](C(=O)N[C@@H](Cc1ccc(O)cc1)C(N)=O)[C@@H](C)O)C(C)C)[C@@H](C)O
B3: N-epsilon25-[2-(2-{2-[2-(2-{2-[(S)-4-Carboxy-4-(17-carboxyheptadecanoylamino)butyrylamino]ethoxy}ethoxy)acetylamino]ethoxy}ethoxy)acetyl]-[Glu14,Lys25]-pramlint … (peptide)
peptide: KCNTATCATQRLAEFLVHSSNNFGK([AEEA-AEEA-γGlu-C18 diacid])ILPPTNVGSNTY-NH2
modifications: disulfide 2-7; N-terminus assumed
SMILES: CC[C@H](C)[C@H](NC(=O)[C@H](CCCCNC(=O)COCCOCCNC(=O)COCCOCCNC(=O)CC[C@H](NC(=O)CCCCCCCCCCCCCCCCC(=O)O)C(=O)O)NC(=O)CNC(=O)[C@H](Cc1ccccc1)NC(=O)[C@H](CC(N)=O)NC(=O)[C@H](CC(N)=O)NC(=O)[C@H](CO)NC(=O)[C@H](CO)NC(=O)[C@H](Cc1c[nH]cn1)NC(=O)[C@@H](NC(=O)[C@H](CC(C)C)NC(=O)[C@H](Cc1ccccc1)NC(=O)[C@H](CCC(=O)O)NC(=O)[C@H](C)NC(=O)[C@H](CC(C)C)NC(=O)[C@H](CCCNC(=N)N)NC(=O)[C@H](CCC(N)=O)NC(=O)[C@@H](NC(=O)[C@H](C)NC(=O)[C@@H]1CSSC[C@H](NC(=O)[C@@H](N)CCCCN)C(=O)N[C@@H](CC(N)=O)C(=O)N[C@@H]([C@@H](C)O)C(=O)N[C@@H](C)C(=O)N[C@@H]([C@@H](C)O)C(=O)N1)[C@@H](C)O)C(C)C)C(=O)N[C@@H](CC(C)C)C(=O)N1CCC[C@H]1C(=O)N1CCC[C@H]1C(=O)N[C@H](C(=O)N[C@@H](CC(N)=O)C(=O)N[C@H](C(=O)NCC(=O)N[C@@H](CO)C(=O)N[C@@H](CC(N)=O)C(=O)N[C@H](C(=O)N[C@@H](Cc1ccc(O)cc1)C(N)=O)[C@@H](C)O)C(C)C)[C@@H](C)O
B4: N-epsilon21-[2-(2-{2-[2-(2-{2-[(S)-4-Carboxy-4-(19-carboxyheptadecanoylamino)butyrylamino]ethoxy}ethoxy)acetylamino]ethoxy}ethoxy)acetyl]-[Glu14,Lys21,Ser28,Ser … (peptide)
peptide: KCNTATCATQRLAEFLVHSSK([AEEA-AEEA-γGlu-19‑carboxyheptadecanoyl])NFGPILSSTNVGSHTY-NH2
modifications: disulfide 2-7
B5: N-alpha-[(S)-4-Carboxy-4-(19-carboxynonadecanoylamino)butyryl]-[Glu14,His17,Gln21,Pro37]-pramlintide (peptide)
peptide: {C20 diacid-γGlu}-KCNTATCATQRLAEFLHHSSQNFGPILPPTNVGSNTP-NH2
modifications: disulfide 2-7
SMILES: CC[C@H](C)[C@H](NC(=O)[C@@H]1CCCN1C(=O)CNC(=O)[C@H](Cc1ccccc1)NC(=O)[C@H](CC(N)=O)NC(=O)[C@H](CCC(N)=O)NC(=O)[C@H](CO)NC(=O)[C@H](CO)NC(=O)[C@H](Cc1c[nH]cn1)NC(=O)[C@H](Cc1c[nH]cn1)NC(=O)[C@H](CC(C)C)NC(=O)[C@H](Cc1ccccc1)NC(=O)[C@H](CCC(=O)O)NC(=O)[C@H](C)NC(=O)[C@H](CC(C)C)NC(=O)[C@H](CCCNC(=N)N)NC(=O)[C@H](CCC(N)=O)NC(=O)[C@@H](NC(=O)[C@H](C)NC(=O)[C@@H]1CSSC[C@H](NC(=O)[C@H](CCCCN)NC(=O)CC[C@H](NC(=O)CCCCCCCCCCCCCCCCCCC(=O)O)C(=O)O)C(=O)N[C@@H](CC(N)=O)C(=O)N[C@@H]([C@@H](C)O)C(=O)N[C@@H](C)C(=O)N[C@@H]([C@@H](C)O)C(=O)N1)[C@@H](C)O)C(=O)N[C@@H](CC(C)C)C(=O)N1CCC[C@H]1C(=O)N1CCC[C@H]1C(=O)N[C@H](C(=O)N[C@@H](CC(N)=O)C(=O)N[C@H](C(=O)NCC(=O)N[C@@H](CO)C(=O)N[C@@H](CC(N)=O)C(=O)N[C@H](C(=O)N1CCC[C@H]1C(N)=O)[C@@H](C)O)C(C)C)[C@@H](C)O
B6: N-epsilon25-[2-(2-{2-[2-(2-{2-[(S)-4-Carboxy-4-(19-carboxyheptadecanoylamino)butyrylamino]ethoxy}ethoxy)acetylamino]ethoxy}ethoxy)acetyl]-[Glu14,His17,Ser21,Lys … (peptide)
peptide: KCNTATCATQRLAEFLHHSSSNFGK([AEEA-AEEA-γGlu-19‑carboxyheptadecanoyl])ILSSTNVGSHTY-NH2
modifications: disulfide 2-7
B7: N-epsilon25-[2-(2-{2-[2-(2-{2-[(S)-4-Carboxy-4-(19-carboxyheptadecanoylamino)butyrylamino]ethoxy}ethoxy)acetylamino]ethoxy}ethoxy)acetyl]-[His17,His21,Lys25,Ser … (peptide)
peptide: KCNTATCATQRLANFLHHSSHNFGK([AEEA-AEEA-γGlu-19‑carboxyheptadecanoyl])ILSSTNVGSHTY-NH2
modifications: disulfide 2-7
B8: N-alpha-[(S)-4-Carboxy-4-(19-carboxynonadecanoylamino)butyryl]-Glu-[Glu14,His17,Gln21,His35]-pramlintide (peptide)
peptide: {C20 diacid-γGlu}-EKCNTATCATQRLAEFLHHSSQNFGPILPPTNVGSHTY-NH2
modifications: disulfide 3-8; not fully specified; printed as N-alpha-[(S)-4-Carboxy-4-(19-carboxynonadecanoylamino)butyryl]-Glu-[Glu14,His17,Gln21,His35]-pramlintide
B9: N-epsilon21-[2-(2-{2-[2-(2-{2-[(S)-4-Carboxy-4-(19-carboxyheptadecanoylamino)butyrylamino]ethoxy}ethoxy)acetylamino]ethoxy}ethoxy)acetyl]-[Glu14,Lys21,Ser29,His … (peptide)
peptide: KCNTATCATQRLAEFLVHSSK([AEEA-AEEA-γGlu-19‑carboxyheptadecanoyl])NFGPILPSTNVGSHTY-NH2
modifications: disulfide 2-7

What follows are binders tested against T1, human amylin 3(a) receptor (human calcitonin receptor + RAMP-3) (human, UniProt P30988 25-474; O60896 24-148) (assay: cell-based or functional assay).
T1 sequence (looked up) 1: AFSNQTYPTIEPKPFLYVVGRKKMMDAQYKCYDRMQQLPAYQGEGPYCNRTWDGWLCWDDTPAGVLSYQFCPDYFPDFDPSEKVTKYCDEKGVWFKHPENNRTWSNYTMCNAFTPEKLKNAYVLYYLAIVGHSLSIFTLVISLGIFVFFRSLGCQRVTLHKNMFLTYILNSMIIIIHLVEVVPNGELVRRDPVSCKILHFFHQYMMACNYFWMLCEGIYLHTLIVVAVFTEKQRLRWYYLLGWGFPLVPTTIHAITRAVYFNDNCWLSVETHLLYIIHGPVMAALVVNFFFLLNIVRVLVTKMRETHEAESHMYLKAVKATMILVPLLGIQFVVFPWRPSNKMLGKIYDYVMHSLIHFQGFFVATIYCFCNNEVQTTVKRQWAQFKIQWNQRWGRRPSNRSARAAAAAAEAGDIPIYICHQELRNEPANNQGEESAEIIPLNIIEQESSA
T1 sequence (looked up) 2: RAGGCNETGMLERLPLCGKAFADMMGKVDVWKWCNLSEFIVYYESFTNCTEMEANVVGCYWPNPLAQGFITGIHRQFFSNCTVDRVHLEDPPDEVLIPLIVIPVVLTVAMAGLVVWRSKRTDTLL

Row | Amylin receptor human EC50 | Binder
1 | 0.999 nM | B1
2 | 0.291 nM | B2
3 | 0.076 nM | B3
4 | 0.858 nM | B4
5 | 0.0555 nM | B5
6 | 0.416 nM | B6
7 | 0.39 nM | B7
8 | 0.391 nM | B8
9 | 1.09 nM | B9

The binders below were run against T2, human calcitonin (a) receptor (human, UniProt P30988 25-474) (assay: cell-based or functional assay).
T2 sequence (looked up): T1 sequence (looked up) 1

Row | CTa receptor human EC50 | Binder
10 | 0.601 nM | B1
11 | 0.266 nM | B2
12 | 0.101 nM | B3
13 | 0.336 nM | B4
14 | 0.0315 nM | B5
15 | 0.142 nM | B6
16 | 0.194 nM | B7
17 | 0.247 nM | B8
18 | 0.48 nM | B9
